# Measurements as given in paper PMC10397247.
# T1: 4H754-bN
# T1 chain: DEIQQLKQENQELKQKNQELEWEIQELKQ
# T2: 4H2610-bN
# T2 chain: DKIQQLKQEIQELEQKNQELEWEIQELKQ
# T3: 4H918-bN
# T3 chain: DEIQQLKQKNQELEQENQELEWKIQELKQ
# T4: 4H3112-bN
# T4 chain: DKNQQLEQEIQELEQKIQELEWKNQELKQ
# T5: 4H3354-bN
# T5 chain: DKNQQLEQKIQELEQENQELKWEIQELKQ
# T6: 4H2576-bN
# T6 chain: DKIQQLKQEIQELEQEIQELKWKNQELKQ
# T7: 4H370-bN
# T7 chain: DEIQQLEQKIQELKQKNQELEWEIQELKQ
# T8: 4H2697-bN
# T8 chain: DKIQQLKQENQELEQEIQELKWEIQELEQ
# T9: 4H454-bN
# T9 chain: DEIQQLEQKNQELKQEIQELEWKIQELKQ
# T10: 4H687-bN
# T10 chain: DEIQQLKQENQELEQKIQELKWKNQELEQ
# T11: 4H3782-bN
# T11 chain: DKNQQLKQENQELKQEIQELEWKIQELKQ
# T12: 4H568-bN
# T12 chain: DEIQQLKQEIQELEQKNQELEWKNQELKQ
# T13: 4H1828-bN
# T13 chain: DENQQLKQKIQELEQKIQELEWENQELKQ
# T14: 4H908-bN
# T14 chain: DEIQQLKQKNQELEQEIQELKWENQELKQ
# T15: 4H3843-bN
# T15 chain: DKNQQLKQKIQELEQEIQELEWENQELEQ
# T16: 4H883-bN
# T16 chain: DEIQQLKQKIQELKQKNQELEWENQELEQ
# T17: 4H797-bN
# T17 chain: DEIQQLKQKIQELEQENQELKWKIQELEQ
# T18: 4H2729-bN
# T18 chain: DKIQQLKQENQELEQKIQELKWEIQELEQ
# T19: 4H2442-bN
# T19 chain: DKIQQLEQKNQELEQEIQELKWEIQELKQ
# T20: 4H3606-bN
# T20 chain: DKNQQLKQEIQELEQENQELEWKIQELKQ
# T21: 4H3185-bN
# T21 chain: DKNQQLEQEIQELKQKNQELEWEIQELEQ
# T22: 4H2618-bN
# T22 chain: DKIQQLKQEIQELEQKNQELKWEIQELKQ
# T23: 4H1845-bN
# T23 chain: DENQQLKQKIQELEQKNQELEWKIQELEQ
# T24: 4H3427-bN
# T24 chain: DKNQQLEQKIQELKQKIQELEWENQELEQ
# T25: 4H3855-bN
# T25 chain: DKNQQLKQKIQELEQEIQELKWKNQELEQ
# T26: 4H72-bN
# T26 chain: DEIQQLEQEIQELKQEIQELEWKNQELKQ
# T27: 4H953-bN
# T27 chain: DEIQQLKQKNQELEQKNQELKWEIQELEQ
# T28: 4H338-bN
# T28 chain: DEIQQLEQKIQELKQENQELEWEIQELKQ
# T29: 4H462-bN
# T29 chain: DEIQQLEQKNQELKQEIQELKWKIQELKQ
# T30: 4H2667-bN
# T30 chain: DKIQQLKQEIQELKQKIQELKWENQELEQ
# T31: 4H3189-bN
# T31 chain: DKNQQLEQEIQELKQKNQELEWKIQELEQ
# T32: 4H607-bN
# T32 chain: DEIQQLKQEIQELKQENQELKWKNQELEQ
# T33: 4H1446-bN
# T33 chain: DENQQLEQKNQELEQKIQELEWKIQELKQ
# T34: 4H967-bN
# T34 chain: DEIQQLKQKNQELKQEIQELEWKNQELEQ
# T35: 4H331-bN
# T35 chain: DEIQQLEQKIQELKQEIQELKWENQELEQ
# T36: 4H717-bN
# T36 chain: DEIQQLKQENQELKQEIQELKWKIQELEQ
# T37: 4H4001-bN
# T37 chain: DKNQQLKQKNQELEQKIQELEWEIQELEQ
# T38: 4H850-bN
# T38 chain: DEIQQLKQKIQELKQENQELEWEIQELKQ
# T39: 4H3638-bN
# T39 chain: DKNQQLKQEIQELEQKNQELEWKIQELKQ
# T40: 4H1449-bN
# T40 chain: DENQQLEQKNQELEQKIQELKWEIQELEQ
# T41: 4H1985-bN
# T41 chain: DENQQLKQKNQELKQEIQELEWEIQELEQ
# T42: 4H906-bN
# T42 chain: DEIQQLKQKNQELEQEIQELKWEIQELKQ
# T43: 4H584-bN
# T43 chain: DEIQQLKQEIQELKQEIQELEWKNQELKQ
# T44: 4H1804-bN
# T44 chain: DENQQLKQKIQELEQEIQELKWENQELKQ
# T45: 4H3631-bN
# T45 chain: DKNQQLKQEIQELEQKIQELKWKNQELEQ
# T46: 4H1393-bN
# T46 chain: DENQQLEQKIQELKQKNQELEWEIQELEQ
# T47: 4H1710-bN
# T47 chain: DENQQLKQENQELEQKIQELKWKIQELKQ
# T48: 4H1629-bN
# T48 chain: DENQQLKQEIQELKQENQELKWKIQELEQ
# T49: 4H619-bN
# T49 chain: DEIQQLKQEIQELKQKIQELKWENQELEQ
# T50: 4H3817-bN
# T50 chain: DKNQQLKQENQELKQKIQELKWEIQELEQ
# T51: 4H3129-bN
# T51 chain: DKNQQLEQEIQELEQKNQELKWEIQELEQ
# T52: 4H570-bN
# T52 chain: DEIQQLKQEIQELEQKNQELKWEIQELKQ
# T53: 4H3974-bN
# T53 chain: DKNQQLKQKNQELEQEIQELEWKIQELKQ
# T54: 4H3414-bN
# T54 chain: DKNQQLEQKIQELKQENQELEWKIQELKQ
# T55: 4H3172-bN
# T55 chain: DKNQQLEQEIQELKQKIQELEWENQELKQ
# T56: 4H850-bA
# T56 chain: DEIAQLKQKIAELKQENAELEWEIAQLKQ
# What was measured:
# Assay in all cases: two-hybrid library CCNG1;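 also: natural log of median RNA to DNA barcode read ratio; higher means stronger binding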
# 4H754-bN = target: T1, 4H754-bN
# 4H2610-bN = target: T2, 4H2610-bN
# 4H918-bN = target: T3, 4H918-bN
# 4H3112-bN = target: T4, 4H3112-bN
# 4H3354-bN = target: T5, 4H3354-bN
# 4H2576-bN = target: T6, 4H2576-bN
# 4H370-bN = target: T7, 4H370-bN
# 4H2697-bN = target: T8, 4H2697-bN
# 4H454-bN = target: T9, 4H454-bN
# 4H687-bN = target: T10, 4H687-bN
# 4H3782-bN = target: T11, 4H3782-bN
# 4H568-bN = target: T12, 4H568-bN
# 4H1828-bN = target: T13, 4H1828-bN
# 4H908-bN = target: T14, 4H908-bN
# 4H3843-bN = target: T15, 4H3843-bN
# 4H883-bN = target: T16, 4H883-bN
# 4H797-bN = target: T17, 4H797-bN
# 4H2729-bN = target: T18, 4H2729-bN
# 4H2442-bN = target: T19, 4H2442-bN
# 4H3606-bN = target: T20, 4H3606-bN
# 4H3185-bN = target: T21, 4H3185-bN
# 4H2618-bN = target: T22, 4H2618-bN
# 4H1845-bN = target: T23, 4H1845-bN
# 4H3427-bN = target: T24, 4H3427-bN
# 4H3855-bN = target: T25, 4H3855-bN
# 4H72-bN = target: T26, 4H72-bN
# 4H953-bN = target: T27, 4H953-bN
# 4H338-bN = target: T28, 4H338-bN
# 4H462-bN = target: T29, 4H462-bN
# 4H2667-bN = target: T30, 4H2667-bN
# 4H3189-bN = target: T31, 4H3189-bN
# 4H607-bN = target: T32, 4H607-bN
# 4H1446-bN = target: T33, 4H1446-bN
# 4H967-bN = target: T34, 4H967-bN
# 4H331-bN = target: T35, 4H331-bN
# 4H717-bN = target: T36, 4H717-bN
# 4H4001-bN = target: T37, 4H4001-bN
# 4H850-bN = target: T38, 4H850-bN
# 4H3638-bN = target: T39, 4H3638-bN
# 4H1449-bN = target: T40, 4H1449-bN
# 4H1985-bN = target: T41, 4H1985-bN
# 4H906-bN = target: T42, 4H906-bN
# 4H584-bN = target: T43, 4H584-bN
# 4H1804-bN = target: T44, 4H1804-bN
# 4H3631-bN = target: T45, 4H3631-bN
# 4H1393-bN = target: T46, 4H1393-bN
# 4H1710-bN = target: T47, 4H1710-bN
# 4H1629-bN = target: T48, 4H1629-bN
# 4H619-bN = target: T49, 4H619-bN
# 4H3817-bN = target: T50, 4H3817-bN
# 4H3129-bN = target: T51, 4H3129-bN
# 4H570-bN = target: T52, 4H570-bN
# 4H3974-bN = target: T53, 4H3974-bN
# 4H3414-bN = target: T54, 4H3414-bN
# 4H3172-bN = target: T55, 4H3172-bN
# 4H850-bA = target: T56, 4H850-bA
binder,measurement,setting,value
DENQQLEQKNQELEQKIQELEWKIQELKQ [4H1446-bN],interaction score,4H754-bN,-0.286
same,interaction score,4H2610-bN,0.732
same,interaction score,4H918-bN,0.759
same,interaction score,4H3112-bN,-0.24
same,interaction score,4H3354-bN,-0.558
same,interaction score,4H2576-bN,1.07
same,interaction score,4H370-bN,-0.536
same,interaction score,4H2697-bN,-0.277
same,interaction score,4H454-bN,0.124
same,interaction score,4H687-bN,-0.229
same,interaction score,4H3782-bN,-0.169
same,interaction score,4H568-bN,-0.0813
same,interaction score,4H1828-bN,0.29
same,interaction score,4H908-bN,-0.254
same,interaction score,4H3843-bN,1.05
same,interaction score,4H883-bN,-0.0261
same,interaction score,4H797-bN,-0.329
same,interaction score,4H2729-bN,0.529
same,interaction score,4H2442-bN,0.215
same,interaction score,4H3606-bN,-0.294
same,interaction score,4H3185-bN,0.1
same,interaction score,4H2618-bN,-0.442
same,interaction score,4H1845-bN,-1.65
same,interaction score,4H3427-bN,0.852
same,interaction score,4H3855-bN,0.333
same,interaction score,4H72-bN,0.548
same,interaction score,4H953-bN,-0.0145
same,interaction score,4H338-bN,-0.426
same,interaction score,4H462-bN,-1.74
same,interaction score,4H2667-bN,0.641
same,interaction score,4H3189-bN,0.67
same,interaction score,4H607-bN,0.502
same,interaction score,4H1446-bN,0.223
same,interaction score,4H967-bN,-1.04
same,interaction score,4H331-bN,1.22
same,interaction score,4H717-bN,-0.982
same,interaction score,4H4001-bN,1.11
DENQQLEQKIQELKQKNQELEWEIQELEQ [4H1393-bN],interaction score,4H850-bN,-1.57
same,interaction score,4H3638-bN,0.818
same,interaction score,4H1449-bN,-0.996
same,interaction score,4H1985-bN,-1.58
same,interaction score,4H906-bN,-0.497
same,interaction score,4H584-bN,-2.15
same,interaction score,4H1804-bN,-0.711
same,interaction score,4H3631-bN,-1.03
same,interaction score,4H1393-bN,-1.33
same,interaction score,4H1710-bN,-1.7
same,interaction score,4H1629-bN,-0.818
same,interaction score,4H619-bN,-0.97
same,interaction score,4H3817-bN,-1.41
same,interaction score,4H3129-bN,-0.903
same,interaction score,4H570-bN,-2.48
same,interaction score,4H3974-bN,-0.815
same,interaction score,4H3414-bN,-1.76
same,interaction score,4H3172-bN,-1.92
same,interaction score,4H850-bA,-0.881
DENQQLKQKIQELEQKIQELEWENQELKQ [4H1828-bN],interaction score,4H754-bN,-2.15
same,interaction score,4H918-bN,-1.16
same,interaction score,4H3112-bN,0.443
same,interaction score,4H3354-bN,-1.74
same,interaction score,4H2576-bN,1.52
same,interaction score,4H2697-bN,-0.202
same,interaction score,4H454-bN,-1.22
same,interaction score,4H687-bN,-0.773
same,interaction score,4H3782-bN,0.26
same,interaction score,4H568-bN,-0.67
same,interaction score,4H1828-bN,1.19
same,interaction score,4H908-bN,-1.28
same,interaction score,4H883-bN,-0.284
same,interaction score,4H797-bN,-1.07
same,interaction score,4H2729-bN,-0.165
same,interaction score,4H2442-bN,-0.746
same,interaction score,4H3185-bN,-0.135
same,interaction score,4H2618-bN,0.00935
same,interaction score,4H1845-bN,-0.541
same,interaction score,4H3427-bN,-0.728
same,interaction score,4H3855-bN,0.0633
same,interaction score,4H72-bN,0.18
same,interaction score,4H953-bN,-0.334
same,interaction score,4H338-bN,-0.738
same,interaction score,4H2667-bN,1.18
same,interaction score,4H607-bN,-0.0859
same,interaction score,4H967-bN,-0.704
same,interaction score,4H331-bN,0.0332
same,interaction score,4H717-bN,-0.318
same,interaction score,4H4001-bN,-0.709
